Experimental data reported in US20200283521A1 (GRANULAR THERAPEUTICS, published 2020).

What was measured:
Assay in all cases: direct ELISA on coated protein, IgG1
hOX40-Fc = target: T1, hOX40-Fc
T1 construct: member of the panel m9
T1 chain: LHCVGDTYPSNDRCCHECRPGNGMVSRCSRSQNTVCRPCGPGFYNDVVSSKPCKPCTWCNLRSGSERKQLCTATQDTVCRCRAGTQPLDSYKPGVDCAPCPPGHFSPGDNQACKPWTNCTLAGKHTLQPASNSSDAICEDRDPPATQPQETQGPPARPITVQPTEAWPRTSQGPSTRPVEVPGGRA

hBAFFR-Fc = target: T2, hBAFFR-Fc (human, UniProt Q96RJ3)
T2 construct: Fc fusion; member of the panel m9
T2 sequence (Q96RJ3 7-71 limits assumed): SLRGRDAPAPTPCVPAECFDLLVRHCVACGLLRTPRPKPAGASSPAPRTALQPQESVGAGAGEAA

hICAM-1-Fc = target: T3, hICAM-1-Fc (human, UniProt P05362)
T3 construct: Fc fusion; member of the panel m9
T3 sequence (P05362 28-480 limits assumed): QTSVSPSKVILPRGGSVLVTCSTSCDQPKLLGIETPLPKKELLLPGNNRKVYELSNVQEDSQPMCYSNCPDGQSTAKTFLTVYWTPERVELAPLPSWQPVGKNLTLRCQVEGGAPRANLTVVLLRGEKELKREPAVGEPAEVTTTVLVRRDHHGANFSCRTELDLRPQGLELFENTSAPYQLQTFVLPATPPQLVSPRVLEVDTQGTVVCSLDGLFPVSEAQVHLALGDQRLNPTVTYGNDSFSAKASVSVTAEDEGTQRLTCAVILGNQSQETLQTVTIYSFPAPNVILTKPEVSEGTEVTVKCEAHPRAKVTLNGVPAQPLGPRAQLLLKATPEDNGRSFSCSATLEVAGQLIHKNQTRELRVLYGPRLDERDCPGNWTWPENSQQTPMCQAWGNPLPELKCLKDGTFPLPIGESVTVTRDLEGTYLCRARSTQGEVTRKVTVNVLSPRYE

hEpCAM-Fc = target: T4, hEpCAM-Fc (human, UniProt P16422)
T4 construct: Fc fusion; member of the panel m9
T4 sequence (looked up): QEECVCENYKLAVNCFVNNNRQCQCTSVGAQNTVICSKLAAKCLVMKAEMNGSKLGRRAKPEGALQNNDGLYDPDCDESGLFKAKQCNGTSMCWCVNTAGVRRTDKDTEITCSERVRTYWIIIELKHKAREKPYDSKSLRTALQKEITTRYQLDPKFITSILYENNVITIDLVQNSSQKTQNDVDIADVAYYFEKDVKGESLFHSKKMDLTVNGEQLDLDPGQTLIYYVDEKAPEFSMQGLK

hVCAM-Fc = target: T5, hVCAM-Fc
T5 construct: member of the panel m9
T5 chain: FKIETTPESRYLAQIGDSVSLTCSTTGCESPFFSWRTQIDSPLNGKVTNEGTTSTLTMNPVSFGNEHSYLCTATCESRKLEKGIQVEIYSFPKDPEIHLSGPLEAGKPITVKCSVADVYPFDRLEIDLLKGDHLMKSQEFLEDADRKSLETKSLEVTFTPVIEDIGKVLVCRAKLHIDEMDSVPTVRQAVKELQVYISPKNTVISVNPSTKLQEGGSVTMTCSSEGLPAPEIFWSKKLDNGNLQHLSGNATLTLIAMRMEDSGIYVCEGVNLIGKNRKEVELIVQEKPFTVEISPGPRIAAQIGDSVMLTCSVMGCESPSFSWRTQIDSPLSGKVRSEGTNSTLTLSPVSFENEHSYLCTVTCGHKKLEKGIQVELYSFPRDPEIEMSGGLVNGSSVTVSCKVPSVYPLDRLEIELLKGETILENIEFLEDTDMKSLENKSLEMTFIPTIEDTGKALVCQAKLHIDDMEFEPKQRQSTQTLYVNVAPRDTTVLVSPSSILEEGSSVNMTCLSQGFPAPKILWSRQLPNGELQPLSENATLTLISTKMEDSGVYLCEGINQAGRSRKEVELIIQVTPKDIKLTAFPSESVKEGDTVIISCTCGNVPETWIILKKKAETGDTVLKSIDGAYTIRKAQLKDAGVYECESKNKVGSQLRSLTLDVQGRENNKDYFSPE

hVCAM-1 = target: T6, hVCAM-1 (human, UniProt P19320)
T6 construct: purified recombinant protein; member of the panel m9
T6 sequence (looked up): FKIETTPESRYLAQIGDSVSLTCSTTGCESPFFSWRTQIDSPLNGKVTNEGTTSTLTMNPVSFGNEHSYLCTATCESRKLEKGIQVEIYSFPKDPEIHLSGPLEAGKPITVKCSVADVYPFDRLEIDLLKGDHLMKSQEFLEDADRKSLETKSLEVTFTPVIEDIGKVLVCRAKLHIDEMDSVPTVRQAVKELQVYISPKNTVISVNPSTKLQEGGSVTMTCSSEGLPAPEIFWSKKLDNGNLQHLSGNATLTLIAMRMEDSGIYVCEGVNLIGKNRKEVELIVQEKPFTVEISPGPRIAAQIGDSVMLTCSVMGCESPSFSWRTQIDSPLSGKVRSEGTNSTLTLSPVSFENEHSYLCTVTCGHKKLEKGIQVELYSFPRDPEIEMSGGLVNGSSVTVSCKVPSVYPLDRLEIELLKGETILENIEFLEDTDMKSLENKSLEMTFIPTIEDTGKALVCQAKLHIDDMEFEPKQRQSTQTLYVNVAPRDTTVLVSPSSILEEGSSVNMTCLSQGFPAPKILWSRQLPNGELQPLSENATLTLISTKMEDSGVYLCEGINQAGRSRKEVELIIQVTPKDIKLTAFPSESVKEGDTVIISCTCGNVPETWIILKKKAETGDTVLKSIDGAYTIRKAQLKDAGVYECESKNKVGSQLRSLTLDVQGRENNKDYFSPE

hCD4 = target: T7, hCD4 (human, UniProt P01730)
T7 construct: purified recombinant protein; member of the panel m9

hCMET-Fc = target: T8, hCMET-Fc (The natural ectodomain is cleaved by furin after residue 307 into disulfide-linked alpha and beta chains. It is given here as one continuous stretch.)
T8 construct: member of the panel m9
T8 chain: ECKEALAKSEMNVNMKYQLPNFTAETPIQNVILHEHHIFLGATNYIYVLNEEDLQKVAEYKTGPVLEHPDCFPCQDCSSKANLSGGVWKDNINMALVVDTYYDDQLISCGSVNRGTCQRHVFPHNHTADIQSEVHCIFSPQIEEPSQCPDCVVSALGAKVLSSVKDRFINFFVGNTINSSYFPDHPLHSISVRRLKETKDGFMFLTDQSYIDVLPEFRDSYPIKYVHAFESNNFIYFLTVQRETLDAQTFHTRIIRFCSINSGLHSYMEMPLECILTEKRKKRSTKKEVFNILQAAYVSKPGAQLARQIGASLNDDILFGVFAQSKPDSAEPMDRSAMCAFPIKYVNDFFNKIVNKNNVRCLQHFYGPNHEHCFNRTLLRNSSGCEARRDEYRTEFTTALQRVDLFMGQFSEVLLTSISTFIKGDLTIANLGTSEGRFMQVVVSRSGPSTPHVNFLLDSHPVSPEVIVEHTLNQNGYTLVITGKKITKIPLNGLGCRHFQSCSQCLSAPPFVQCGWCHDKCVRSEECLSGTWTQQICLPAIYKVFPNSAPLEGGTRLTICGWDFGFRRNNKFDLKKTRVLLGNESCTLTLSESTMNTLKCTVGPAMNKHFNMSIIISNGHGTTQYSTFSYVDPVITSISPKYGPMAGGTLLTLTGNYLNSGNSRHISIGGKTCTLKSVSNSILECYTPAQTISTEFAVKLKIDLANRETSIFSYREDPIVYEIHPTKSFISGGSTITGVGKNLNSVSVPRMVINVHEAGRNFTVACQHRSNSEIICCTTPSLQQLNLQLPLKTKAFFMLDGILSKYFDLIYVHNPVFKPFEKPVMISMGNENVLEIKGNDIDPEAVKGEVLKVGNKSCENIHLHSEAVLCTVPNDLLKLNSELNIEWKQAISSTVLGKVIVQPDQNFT

hDR6-Fc = target: T9, hDR6-Fc (human, UniProt O75509)
T9 construct: Fc fusion; member of the panel m9
T9 sequence (looked up): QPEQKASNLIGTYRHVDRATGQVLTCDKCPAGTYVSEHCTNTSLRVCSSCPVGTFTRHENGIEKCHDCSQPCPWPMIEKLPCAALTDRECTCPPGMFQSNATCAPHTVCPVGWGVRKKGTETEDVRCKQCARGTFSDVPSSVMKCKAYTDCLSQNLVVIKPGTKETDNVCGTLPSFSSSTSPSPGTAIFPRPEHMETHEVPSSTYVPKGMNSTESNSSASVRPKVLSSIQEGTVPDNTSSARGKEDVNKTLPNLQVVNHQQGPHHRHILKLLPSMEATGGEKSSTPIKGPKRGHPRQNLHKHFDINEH

binding result (hOX40-Fc): no binding (tested: 1 µg/ml) | binding result (hBAFFR-Fc): no binding (tested: 1 µg/ml) | binding result (hICAM-1-Fc): no binding (tested: 1 µg/ml) | binding result (hEpCAM-Fc): no binding (tested: 1 µg/ml) | binding result (hVCAM-Fc): no binding (tested: 1 µg/ml) | binding result (hVCAM-1): no binding (tested: 1 µg/ml) | binding result (hCD4): no binding (tested: 1 µg/ml) | binding result (hCMET-Fc): no binding (tested: 1 µg/ml) | binding result (hDR6-Fc): no binding (tested: 1 µg/ml)
B1: MH1, human IgG1 (antibody, V domains shown)
VH: QVQLVQSGAEVKKPGASVKVSCKASGYTFTDYYMNWVRQAPGQGLEWMGRIYPGSGNTYYAQKFQGRVTMTRDTSTSTVYMELSSLRSEDTAVYYCARGVYYYDYWGQGTLVTVSS
VL: DIQMTQSPSSLSASVGDRVTITCRASQGIRTNLAWFQQKPGKAPKSLIYAASSLQSGVPSRFSGSGSGTDFTLTISSLQPEDFATYYCQQYNSYPRTFGGGTKVEIK
notes: IgG1; also called IgG1-MH1
